Measured values published in patent US20070196883A1 (UNIVERSITY OF DUNDEE, published 2007).
One block for each binder: values may come before it. Ends that are not written are not given here. * marks the point of attachment. Biotin = O=C1N[C@H]2[C@H](CS[C@H]2CCCCC(=O)*)N1

Legend:
[1] = molecular target: T1, His-PDK1 (Myc-PDK1 with an N-terminal hexahistidine sequence, from Sf21 insect cells) (human, UniProt O15530 1-556); assay: SPR competition: 0.5 µM His-PDK1 mixed with 0-3 µM free Region B peptide, injected over the immobilised peptide
T1 construct: Purified by Ni-NTA agarose, >90% homogeneous; also called His-tagged PDK1
T1 sequence: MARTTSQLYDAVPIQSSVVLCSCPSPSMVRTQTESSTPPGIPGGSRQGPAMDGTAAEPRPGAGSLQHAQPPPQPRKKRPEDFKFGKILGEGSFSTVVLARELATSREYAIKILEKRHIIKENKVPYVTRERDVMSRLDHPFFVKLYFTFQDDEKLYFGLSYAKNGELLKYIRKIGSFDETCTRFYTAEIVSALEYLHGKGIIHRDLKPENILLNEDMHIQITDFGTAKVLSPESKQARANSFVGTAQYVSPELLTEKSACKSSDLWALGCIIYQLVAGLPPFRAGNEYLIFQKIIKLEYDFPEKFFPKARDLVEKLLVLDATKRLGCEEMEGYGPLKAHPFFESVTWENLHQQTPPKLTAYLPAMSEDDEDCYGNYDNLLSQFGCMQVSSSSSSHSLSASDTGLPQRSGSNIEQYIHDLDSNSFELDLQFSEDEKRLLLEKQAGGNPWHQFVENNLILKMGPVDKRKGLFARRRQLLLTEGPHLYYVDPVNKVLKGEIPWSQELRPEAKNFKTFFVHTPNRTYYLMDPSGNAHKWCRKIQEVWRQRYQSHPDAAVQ

[2] = molecular target: T1, His-PDK1 (Myc-PDK1 with an N-terminal …); assay: SPR competition with the immobilised Region B peptide
[3] = molecular target: T1, His-PDK1 (Myc-PDK1 with an N-terminal …); assay: SPR, His-PDK1 over the biotinylated peptide on Sensor Chip SA, steady state
GST-MSK1 = molecular target: T2, GST-MSK1 (UniProt O75582 1-802); assay: GST pull-down from 293 cells, PDK1 immunoblot and activity
T2 construct: not shown: glutathione S-transferase (GST) tag
T2 sequence (O75582 whole entry): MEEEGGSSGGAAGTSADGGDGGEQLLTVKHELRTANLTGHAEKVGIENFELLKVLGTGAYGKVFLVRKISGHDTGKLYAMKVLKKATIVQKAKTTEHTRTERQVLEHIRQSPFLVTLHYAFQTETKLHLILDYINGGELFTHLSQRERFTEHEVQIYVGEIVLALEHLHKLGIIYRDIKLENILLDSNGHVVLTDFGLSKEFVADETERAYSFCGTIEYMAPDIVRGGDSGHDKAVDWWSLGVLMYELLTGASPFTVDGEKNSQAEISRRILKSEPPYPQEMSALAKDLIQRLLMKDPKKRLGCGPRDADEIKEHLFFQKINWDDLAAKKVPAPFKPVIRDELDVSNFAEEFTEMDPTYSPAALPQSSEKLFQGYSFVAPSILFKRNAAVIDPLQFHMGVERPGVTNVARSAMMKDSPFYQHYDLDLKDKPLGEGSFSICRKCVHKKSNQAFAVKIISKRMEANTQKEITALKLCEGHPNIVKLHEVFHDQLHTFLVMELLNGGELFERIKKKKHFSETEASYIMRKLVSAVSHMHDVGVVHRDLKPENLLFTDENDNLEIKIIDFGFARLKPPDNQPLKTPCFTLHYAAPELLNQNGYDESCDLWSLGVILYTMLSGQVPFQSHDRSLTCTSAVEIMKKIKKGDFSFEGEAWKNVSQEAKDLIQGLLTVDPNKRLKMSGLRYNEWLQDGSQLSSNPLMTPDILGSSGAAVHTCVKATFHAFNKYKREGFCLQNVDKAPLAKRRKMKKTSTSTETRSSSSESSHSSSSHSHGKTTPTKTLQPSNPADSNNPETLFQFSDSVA

Kd [3]: 0.8 µM
B3: immobilised and biotinylated 24 residue synthetic peptide corresponding to the Region B peptide (peptide)
peptide: REPRILSEEEQEMFRDFDYIADWC(Biotin)
notes: also called Region B peptide, biotinylated

binding result (GST-MSK1): no binding
B4: endogenous PDK1 of 293 cells (enzyme, UniProt O15530 1-556, looked up)
chain: T1 sequence
notes: Two bands (63 and 66 kDa) both co-purified with GST-PIF; also called PDK1 immunoreactive bands at 63 kDa and 66 kDa

Second part, the binder before the results:

B1: Region B peptide (24 residue synthetic peptide corresponding to Region B of PIF) (peptide)
peptide: REPRILSEEEQEMFRDFDYIADWC
notes: also called free peptide; wild type peptide
Kd [1]: 1.5 µM

B2: D978A-Region B peptide (peptide)
peptide: REPRILSEEEQEMFRDFAYIADWC
notes: Range 961-984 is worked out from 'C-terminal 24 amino acids'
fold less strongly than the Region B peptide [2]: 10 fold
